This assay deals with E. coli derived recombinant CRM197 (cross reacting material 197) (Corynebacterium diphtheriae C7 (β197)). In words: crystal structure; sitting drop, room temperature; 22.9 mg/ml protein in 0.15 M NaCl, 0.01 M Tris/HCl pH 8.3 mixed 1:1 with 0.2 M lithium sulfate, 0.1 M Bis-Tris pH 5.5, 25% (w/v) PEG 3350; data at 100 K; four molecules in the asymmetric unit (two domain-swapped dimers).

The term stoichiometry N denotes the number of molecules, sites or subunits per partner or assembly. Turning to “E. coli derived recombinant CRM197 (cross reacting material 197) (natural protein)”, the stoichiometry N amounted to 2.

Source of the values: publication PMC6153374.
